Results reported in PMC6712033, “Proteasome subunit α1 overexpression preferentially drives canonical proteasome biogenesis and enhances stress tolerance in yeast” (Scientific Reports, 2019).

Target: T1, proteasome subunit α2-K160C (S. cerevisiae, UniProt P23639 1-250, K160C)
T1 construct: 20S proteasome core particle subunit α2, S. cerevisiae, with an engineered cysteine at the α2-α3 interface; Detected with an anti-His antibody (TetraHis); also called His (α2); source: S. cerevisiae (WT or pba3Δ), in cell extract
T1 sequence (looked up): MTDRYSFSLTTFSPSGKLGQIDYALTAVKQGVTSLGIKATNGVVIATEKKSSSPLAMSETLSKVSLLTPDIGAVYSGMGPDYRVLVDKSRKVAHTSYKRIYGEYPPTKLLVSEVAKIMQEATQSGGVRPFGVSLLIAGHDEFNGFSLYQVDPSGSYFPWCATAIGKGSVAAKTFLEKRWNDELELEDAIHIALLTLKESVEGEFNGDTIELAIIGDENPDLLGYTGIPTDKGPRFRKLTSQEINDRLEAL
Experiment: cross-linking; engineered disulfide crosslinking in yeast extracts (WT or pba3Δ, empty vector or α1 overexpressed); 250 µM CuCl2, 25 °C, 10 minutes; 50 mM HEPES pH 7.5, 150 mM NaCl, 5 mM MgCl2, 2 mM ATP; non-reducing SDS-PAGE, anti-His immunoblot; reversed by DTT
Details: partners not purified

fold increase in crosslinking (α1 overexpressed against empty vector, pba3Δ cells): 1.76 fold
B1: proteasome subunit α3-L56C (natural protein, S. cerevisiae, UniProt P23638 1-258, looked up)
chain: MGSRRYDSRTTIFSPEGRLYQVEYALESISHAGTAIGIMASDGIVLAAERKVTSTCLEQDTSTEKLYKLNDKIAVAVAGLTADAEILINTARIHAQNYLKTYNEDIPVEILVRRLSDIKQGYTQHGGLRPFGVSFIYAGYDDRYGYQLYTSNPSGNYTGWKAISVGANTSAAQTLLQMDYKDDMKVDDAIELALKTLSKTTDSSALTYDRLEFATIRKGANDGEVYQKIFKPQEIKDILVKTGITKKDEDEEADEDMK
notes: 20S proteasome core particle subunit α3, S. cerevisiae, with an engineered cysteine at the α2-α3 interface; source: S. cerevisiae (WT or pba3Δ), in cell extract
